The record followed here is USRE46170E1, “Insulin derivatives” (Novo Nordisk A/S, priority 2005, dated 2016).

Series [1] can be described thus: Hydrophobicity (hydrophobic index) relative to human insulin by isocratic RP-HPLC. Type of series: physicochemical. Conditions: LiChrosorb RP18 column, isocratic elution at 40° C., sodium phosphate buffer pH 7.3/acetonitrile. On the procedure:
The elution was monitored by following the UV absorption of the eluate at 214 nm. Void time, t0, was found by injecting 0.1 mM sodium nitrate.

In series [2] the target is human insulin receptor (Homo sapiens, UniProt P06213). Briefly: Insulin receptor binding, SPA microtiterplate antibody capture assay. Conditions: purified recombinant human insulin receptor - exon 11; A14 Tyr[125I]-human insulin tracer; 16 hours incubation. The protocol:
SPA-PVT antibody-binding beads, anti-mouse reagent (Amersham Biosciences, Cat No. PRNQ0017) were mixed with 25 ml of binding buffer (100 mM HEPES pH 7.8; 100 mM sodium chloride, 10 mM MgSO4, 0.025% Tween-20). […] A total of 100 μl was then added and a dilution series is made from appropriate samples. To the dilution series was then added 100 μl of reagent mix and the samples were incubated for 16 hours while gently shaken. The phases were the then separated by centrifugation for 1 min and the plates counted in a Topcounter. The binding data were fitted using the nonlinear regression algorithm in the GraphPad Prism 2.01 (GraphPad Software, San Diego, Calif.).

human insulin receptor, sequence (P06213 28-746 isoform P06213-2 limits assumed): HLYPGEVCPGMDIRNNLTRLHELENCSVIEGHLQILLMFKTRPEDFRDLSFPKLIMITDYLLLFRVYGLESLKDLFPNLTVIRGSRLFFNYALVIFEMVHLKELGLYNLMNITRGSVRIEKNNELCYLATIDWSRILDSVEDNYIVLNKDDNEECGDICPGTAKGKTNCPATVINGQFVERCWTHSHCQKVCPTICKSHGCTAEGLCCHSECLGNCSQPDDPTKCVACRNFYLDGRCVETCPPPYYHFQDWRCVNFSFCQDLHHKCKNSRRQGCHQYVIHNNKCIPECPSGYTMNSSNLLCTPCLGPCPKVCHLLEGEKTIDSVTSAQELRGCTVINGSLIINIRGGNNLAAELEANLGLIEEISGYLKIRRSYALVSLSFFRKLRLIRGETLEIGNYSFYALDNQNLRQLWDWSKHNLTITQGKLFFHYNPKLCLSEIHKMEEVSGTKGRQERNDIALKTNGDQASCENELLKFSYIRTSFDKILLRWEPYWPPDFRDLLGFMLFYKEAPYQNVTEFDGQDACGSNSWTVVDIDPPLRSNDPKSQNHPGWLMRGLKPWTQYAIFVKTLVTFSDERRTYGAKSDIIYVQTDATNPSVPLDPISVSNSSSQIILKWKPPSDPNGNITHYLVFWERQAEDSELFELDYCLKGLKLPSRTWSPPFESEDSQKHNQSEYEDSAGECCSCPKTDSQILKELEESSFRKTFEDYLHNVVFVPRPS
human insulin receptor, sequence (P06213 763-1382 partner limits assumed): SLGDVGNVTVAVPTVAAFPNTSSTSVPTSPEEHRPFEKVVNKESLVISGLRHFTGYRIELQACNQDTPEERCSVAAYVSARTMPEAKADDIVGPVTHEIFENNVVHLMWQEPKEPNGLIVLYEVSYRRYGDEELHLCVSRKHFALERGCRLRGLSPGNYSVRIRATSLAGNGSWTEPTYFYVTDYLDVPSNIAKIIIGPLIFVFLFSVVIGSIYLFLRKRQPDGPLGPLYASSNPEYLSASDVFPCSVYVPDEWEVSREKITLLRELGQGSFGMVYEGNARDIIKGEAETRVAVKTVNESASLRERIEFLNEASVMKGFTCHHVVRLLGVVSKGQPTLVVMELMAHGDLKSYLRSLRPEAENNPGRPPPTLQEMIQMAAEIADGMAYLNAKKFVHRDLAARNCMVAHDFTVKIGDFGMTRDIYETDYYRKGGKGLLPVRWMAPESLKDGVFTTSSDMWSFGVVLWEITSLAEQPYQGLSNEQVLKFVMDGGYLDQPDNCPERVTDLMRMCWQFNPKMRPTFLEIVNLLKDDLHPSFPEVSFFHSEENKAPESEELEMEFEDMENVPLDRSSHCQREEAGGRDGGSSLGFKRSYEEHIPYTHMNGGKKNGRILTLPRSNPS

Consider “N^εB29-{4-[2-(4-carboxymethylphenyl)ethyl]phenyl}acetyl-γ-L-glutamyl desB30 human insulin [Example 21]”, for which, in series [1], the “k′rel” value was determined as 0.291.
In the case of “N^εB29—[N—(HOOC(CH2)13CO)—N-(carboxyethyl)-CH2-para-C6H4CO] desB30 human insulin [Example 2]”, the “Receptor binding (% of human insulin)” value in series [2] is 28 % of human insulin. The “k′rel” value in series [1] is on record as 0.81.
Take “N^εB29-10-(4-Carboxyphenoxy)decanoyl beta-Asp desB30 insulin [Example 25]”: the “Receptor binding (% of human insulin)” value in series [2] is listed as 42 % of human insulin. For the same substance, the “k′rel” value in series [1] came out at 0.348.
Regarding “N^εB29{3-[(3,5-Bis-carboxymethoxy-benzyl)-(15-carboxypentadecanoyl)amino]-propionyl desB30 human insulin [Example 16]”, the “k′rel” value in series [1] came to 0.45.
On to “N^εB29-ω-carboxypentadecanoyl-γ-L-glutamyl 4-aminomethyl-benzoyl) desB30 human insulin [Example 11]”, for which, in series [2], the “Receptor binding (% of human insulin)” value is reported as 14 % of human insulin. Moreover, the “k′rel” value in series [1] worked out at 1.12.
With “N^εB29—[N—(HOOC(CH2)14CO)—N-(carboxyethyl)-para-C6H4CO] desB30 human insulin [Example 8]”, in series [2], the “Receptor binding (% of human insulin)” value is 17 % of human insulin. Also, the “k′rel” value in series [1] is on record as 1.08.
Take “N^εB29-[(5-{[(2-Carboxyethyl)-(15-carboxypentadecanoyl)amino]methyl}furan-2-carbonyl)desB30 human insulin [Example 5]”: the “Receptor binding (% of human insulin)” value in series [2] is 13 % of human insulin. Further, the “k′rel” value in series [1] is given as 1.19.
As to “N^εB29-ω-carboxypentadecanoyl-(4-aminomethylbenzoyl)-γ-L-glutamyl desB30 human insulin [Example 18]”, the “k′rel” value in series [1] worked out at 1.18.
“N^εB29-4-{[(2-Carboxyethyl)-(15-carboxypentadecanoyl)amino]methyl}benzoyl)-γ-L-glutamyl desB30 human insulin [Example 20]”: in series [1], the “k′rel” value is on record as 0.399.
Regarding “N^εB29—N—(HOOC(CH2)16CO)—N(carboxyethyl)-CH2-para-C6H4CO] desB30 human insulin [Example 3]”, in series [2], the “Receptor binding (% of human insulin)” value is 15 % of human insulin. For the same substance, the “k′rel” value in series [1] worked out at 2.03.
Take “N^εB29-(3-Carboxy-5-(14-carboxytetradecyloxy)benzoyl) desB30 human insulin [Example 13]”: the “k′rel” value in series [1] came out at 1.175.
Consider “N^εB29-(3-Carboxy-5-hexadecandioylaminobenzoyl) des(B30)insulin [Example 9]”, for which the “Receptor binding (% of human insulin)” value in series [2] is on record as 12 % of human insulin. For the same substance, the “k′rel” value in series [1] came to 1.7.
For the substance “N^εB29-10-(4-carboxyphenylsulfanyl)decanoyl-γ-L-glutamyl desB30 human insulin [Example 23]”, the “Receptor binding (% of human insulin)” value in series [2] is listed as 101 % of human insulin. For the same substance, in series [1], the “k′rel” value is reported as 0.475.
“N^εB29-[3-Carboxy-5-(octadecandioyl-N-carboxyethylglycin)aminobenzoyl] desB30 human insulin [Example 15]”: in series [1], the “k′rel” value is 0.662.
For “N^εB29-(3-Carboxy-5-octadecandioylaminobenzoyl) des(B30) human insulin [Example 10]”, the “Receptor binding (% of human insulin)” value in series [2] was 19 % of human insulin. In addition, the “k′rel” value in series [1] was found to be 2.97.
On to “N^εB29-{4-Carboxy-4-[10-(4-carboxy-phenoxy)-decanoylamino]-butyryl}desB30 human insulin [Example 14]”, for which the “Receptor binding (% of human insulin)” value in series [2] is given as 46 % of human insulin. The “k′rel” value in series [1] is 0.388.
On to “N^εB29-(3-carboxy-4-hexdecandioylaminobenzoyl) desB30 human insulin [Example 22]”, for which the “k′rel” value in series [1] was found to be 1.075.
For “N^εB29—N—(HOOC(CH2)15CO)—N-(carboxyethyl)-CH2-para-C6H4CO] desB30 human insulin [Example 4]”, the “k′rel” value in series [1] is recorded as 1.23.
In the case of “N^εB29-(3-Carboxy-4-(14-carboxytetradecyloxy)benzoyl) desB30 human insulin [Example 12]”, the “k′rel” value in series [1] was determined as 1.51.
Take “N^εB29—[N—HOOC(CH2)14CO)—N-(carboxethyl)-CH2-ortho C6H4CO] desB30 human insulin [Example 7]”: the “Receptor binding (% of human insulin)” value in series [2] was 11 % of human insulin. Moreover, the “k′rel” value in series [1] was determined as 0.905.
On the same counts, the results for “N^εB29-11-(4-Carboxy-phenoxy) undecanoyl γ-L-glutamyl desB30 insulin [Example 26]” are 55 % of human insulin and 0.482.
“N^εB29—[N—HOOC(CH2)14CO)—N-(carboxyethyl)-CH2-para-C6H4CO] desB30 human insulin [Example 1]”: the “Receptor binding (% of human insulin)” value in series [2] is listed as 18 % of human insulin.
